This note sets out measurements from patent US20260103488A1.

The assay addresses Lck(h) (lymphocyte-specific protein tyrosine kinase) (human) (UniProt P06239). Description: cell-based or functional assay.

Sequence of Lck(h) (lymphocyte-specific protein tyrosine kinase) (human) (P06239 whole entry): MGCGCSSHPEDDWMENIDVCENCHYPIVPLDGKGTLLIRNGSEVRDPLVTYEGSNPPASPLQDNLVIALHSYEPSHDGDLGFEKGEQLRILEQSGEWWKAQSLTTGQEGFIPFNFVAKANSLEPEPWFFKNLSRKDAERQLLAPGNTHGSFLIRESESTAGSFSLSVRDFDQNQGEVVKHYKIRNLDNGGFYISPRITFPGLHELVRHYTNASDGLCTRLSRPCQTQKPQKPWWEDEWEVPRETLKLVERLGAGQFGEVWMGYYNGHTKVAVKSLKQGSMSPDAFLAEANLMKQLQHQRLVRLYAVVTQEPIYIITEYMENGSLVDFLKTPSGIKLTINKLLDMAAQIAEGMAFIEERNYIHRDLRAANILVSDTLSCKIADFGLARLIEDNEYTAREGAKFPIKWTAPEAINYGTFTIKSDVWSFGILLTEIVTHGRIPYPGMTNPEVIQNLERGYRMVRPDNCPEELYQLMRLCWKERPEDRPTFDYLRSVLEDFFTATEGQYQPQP

On to rskaknplyrrrrrrrrr (IKD14800) (peptide), for which the Lck activity, percentage relative to control, in vitro kinase assay, peptide 1 µM (% increase in Lck activity) is 490.
